# Results taken from patent US20230025600A1, “TREATMENT OF CANCERS WITH ANTIBODY DRUG CONJUGATES (ADC) THAT BIND TO 191P4D12 PROTEINS” (AGENSYS, INC., priority 2019, published 2023).
# Key:
# EV-201 adverse reactions = type: in vivo, human
# Description: The data described in this section reflect exposure to PADCEV from EV-201, a single arm study in patients (n=125) with locally advanced or metastatic urothelial cancer who had received prior treatment with a PD-1 or PD-L1 inhibitor and platinum-based chemotherapy. Patients received PADCEV 1.25 mg/kg on Days 1, 8 and 15 of a 28-day cycle until disease progression or unacceptable toxicity. The median duration of exposure to PADCEV was 4.6 months (range: 0.5-15.6).
# [1] = Storage of reconstituted vial and prepared infusion bag; type: physicochemical
# Description: 7. Based upon the calculated dose amount, the reconstituted solution from the vial(s) should be added to the infusion bag immediately. […] If not used immediately, reconstituted vials may be stored for up to […] in refrigeration at 2° C. to 8° C. (36° F. to 46° F.). […] Discard unused vials with reconstituted solution beyond the recommended storage time.
# 14. If the infusion is not administered immediately, the prepared infusion bag should not be stored longer than […] at 2° C. to 8° C. (36° F. to 46° F.).
# [2] = system: locally advanced or metastatic urothelial cancer; test: EV-201 single-arm trial, efficacy (BICR, RECIST v1.1); type: in vivo, human
# Description: The efficacy of PADCEV was evaluated in EV-201 (NCT03219333), single-arm, multicenter trial that enrolled 125 patients with locally advanced or metastatic urothelial cancer who received prior treatment with a PD-1 or PD-L1 inhibitor and platinum-based chemotherapy. Patients were excluded if they had active CNS metastases, ongoing sensory or motor neuropathy >Grade 2, or uncontrolled diabetes defined as hemoglobin A1C (HbA1c)≥8% or HbA1c≥7% with associated diabetes symptoms.
# The median age was 69 years (range: 40 to 84 years), 70% were male, and 85% were Caucasian. […] Ninety percent of patients had visceral metastases including 40% with liver metastases. Two-thirds of patients had pure transitional cell carcinoma (TCC) histology; 33% had TCC with other histologic variants. An immunohistochemistry clinical trial assay was used to assess patients with tumor tissue available, and detected Nectin-4 expression in all patients tested (n=120). The median number of prior systemic therapies was 3 (range: 1 to 6). Forty-six percent of patients received prior PD-1 inhibitor, 42% received prior PD-L1 inhibitor, and an additional 13% received both PD-1 and PD-L1 inhibitors. Sixty-six percent of patients received prior cisplatin-based regimens, 26% received prior carboplatin-based regimens, and an additional 8% received both cisplatin and carboplatin-based regimens.
# The major efficacy outcome measures were confirmed objective response rate (ORR) and duration of response (DOR) assessed by blinded independent central review (BICR) using RECIST v1.1.
# [3] = Immunogenicity (anti-therapeutic antibody, ATA); type: in vivo, human; settings: 365 patients tested
# From the text: As with all therapeutic proteins, there is a potential for immunogenicity. The detection of antibody formation is highly dependent on the sensitivity and specificity of the assay. Additionally, the observed incidence of antibody (including neutralizing antibody) positivity in an assay may be influenced by several factors including assay methodology, sample handling, timing of sample collection, concomitant medications, and underlying disease. For these reasons, comparison of the incidence of antibodies in the studies described below with the incidence of antibodies in other studies or other enfortumab vedotin products may be misleading.
# A total of 365 patients were tested for immunogenicity to PADCEV; 4 patients (1%) were confirmed to be transiently positive for anti-therapeutic antibody (ATA), and 1 patient (0.3%) was confirmed to be persistently positive for ATA at any post-baseline time point. No impact of ATA on efficacy, safety and pharmacokinetics was observed.
# [4] = Population pharmacokinetic analysis in patients; type: in vivo, human
# From the text: Population pharmacokinetic analysis included data from 369 patients based on three Phase 1 studies and one Phase 2 study. Enfortumab vedotin-ejfv pharmacokinetics were characterized after single and multiple doses in patients with locally advanced or metastatic urothelial carcinoma and other solid tumors.
# Steady-state concentrations of ADC and MMAE were reached after 1 treatment cycle.
# [5] = Exposure-response analysis; type: in vivo, human
# pregnant rats = test: Rat embryo-fetal development study; type: in vivo
# From the text: Additionally, skeletal anomalies (asymmetric, fused, incompletely ossified, and misshapen sternebrae, misshapen cervical arch, and unilateral ossification of the thoracic centra) and decreased fetal weight were observed.
# rats = test: Repeat-dose toxicology studies in rats; type: in vivo, rat
# [6] = EV-201, patients who experienced rash
# [7] = ADC, after first treatment cycle of 1.25 mg/kg, Days 1, 8 and 15
substance,measurement,setting,value
enfortumab vedotin-ejfv [PADCEV],herpes zoster,EV-201 adverse reactions; EV-201,3%
same,infusion site extravasation,EV-201 adverse reactions; EV-201,2%
same,median time to onset of Grade >=2 peripheral neuropathy,EV-201 adverse reactions; EV-201,3.8 months
same,median time to onset of severe skin reactions,EV-201 adverse reactions; EV-201,0.8 months
same,peripheral neuropathy: complete resolution at last evaluation,EV-201 adverse reactions; EV-201,19%
same,peripheral neuropathy: partial improvement at last evaluation,EV-201 adverse reactions; EV-201,26%
same,"Alopecia, Grade >= 3","EV-201 adverse reactions; EV-201, n = 125",0%
same,"Any adverse reaction, All Grades","EV-201 adverse reactions; EV-201, n = 125",100%
same,"Any adverse reaction, Grade >= 3","EV-201 adverse reactions; EV-201, n = 125",73%
same,"Decreased appetite, Grade >= 3","EV-201 adverse reactions; EV-201, n = 125",2%
same,"Dry skin, Grade >= 3","EV-201 adverse reactions; EV-201, n = 125",0%
same,"Dysgeusia, Grade >= 3","EV-201 adverse reactions; EV-201, n = 125",0%
same,"Nausea, Grade >= 3","EV-201 adverse reactions; EV-201, n = 125",3%
same,"Peripheral neuropathy (grouped term), Grade >= 3","EV-201 adverse reactions; EV-201, n = 125",4%
same,"Pruritus, All Grades","EV-201 adverse reactions; EV-201, n = 125",26%
same,"Pruritus, Grade >= 3","EV-201 adverse reactions; EV-201, n = 125",2%
same,"Vomiting, All Grades","EV-201 adverse reactions; EV-201, n = 125",18%
same,"Vomiting, Grade >= 3","EV-201 adverse reactions; EV-201, n = 125",2%
same,adverse reactions leading to discontinuation,"EV-201 adverse reactions; EV-201, n = 125",16%
same,adverse reactions leading to dose interruption,"EV-201 adverse reactions; EV-201, n = 125",64%
same,adverse reactions leading to dose reduction,"EV-201 adverse reactions; EV-201, n = 125",34%
same,dose interruption due to fatigue,"EV-201 adverse reactions; EV-201, n = 125",6%
same,dose interruption due to peripheral neuropathy,"EV-201 adverse reactions; EV-201, n = 125",18%
same,dose interruption due to rash,"EV-201 adverse reactions; EV-201, n = 125",9%
same,dose reduction due to fatigue,"EV-201 adverse reactions; EV-201, n = 125",4%
same,dose reduction due to peripheral neuropathy,"EV-201 adverse reactions; EV-201, n = 125",12%
same,dose reduction due to rash,"EV-201 adverse reactions; EV-201, n = 125",6%
same,fatal adverse reaction: acute respiratory failure,"EV-201 adverse reactions; EV-201, n = 125",0.8%
same,fatal adverse reaction: aspiration pneumonia,"EV-201 adverse reactions; EV-201, n = 125",0.8%
same,fatal adverse reaction: cardiac disorder,"EV-201 adverse reactions; EV-201, n = 125",0.8%
same,fatal adverse reaction: sepsis,"EV-201 adverse reactions; EV-201, n = 125",0.8%
same,fatal adverse reactions,"EV-201 adverse reactions; EV-201, n = 125",3.2%
same,peripheral neuropathy leading to treatment discontinuation,"EV-201 adverse reactions; EV-201, n = 125",6%
same,serious adverse reaction: diarrhea,"EV-201 adverse reactions; EV-201, n = 125",4%
same,serious adverse reaction: fatigue,"EV-201 adverse reactions; EV-201, n = 125",2%
same,serious adverse reaction: nausea,"EV-201 adverse reactions; EV-201, n = 125",2%
same,serious adverse reaction: rash,"EV-201 adverse reactions; EV-201, n = 125",3%
same,serious adverse reaction: vomiting,"EV-201 adverse reactions; EV-201, n = 125",2%
same,serious adverse reactions,"EV-201 adverse reactions; EV-201, n = 125, 1.25 mg/kg Days 1, 8, 15 of 28-day cycle",46%
same,rash: complete resolution,EV-201 adverse reactions; [6],65%
same,rash: partial improvement,EV-201 adverse reactions; [6],22%
same,patients who developed Grade 3-4 hyperglycemia,"EV-201 adverse reactions; EV-201, baseline hemoglobin A1C >=8% excluded",8%
same,storage time of prepared infusion bag,[1]; 2° C. to 8° C.,≤ 8 h
same,storage time of reconstituted vials,[1]; refrigeration at 2° C. to 8° C.,up to 4 hours
same,median time to response,[2]; EV-201,1.84 months
same,Median Duration of Response,"[2]; EV-201, BICR, median follow-up 10.2 months",7.6 months
same,Complete Response Rate (CR),"[2]; EV-201, n = 125, BICR",12%
same,Partial Response Rate (PR),"[2]; EV-201, n = 125, BICR",32%
same,Confirmed ORR,"[2]; EV-201, n = 125, BICR, 1.25 mg/kg Days 1, 8, 15 of 28-day cycle",44%
same,"impact of ATA on efficacy, safety and pharmacokinetics",[3],No impact
same,patients persistently positive for ATA at any post-baseline time point,[3]; 1 patient,0.3%
same,patients transiently positive for anti-therapeutic antibody (ATA),[3]; 4 patients,1%
same,"exposure (AUC) in mild, moderate or severe renal impairment","[4]; 1.25 mg/kg, compared to normal renal function",No significant differences
same,"AUC0-28 d, Mean (±SD)",[4]; [7],111 (38) μg · d/mL
same,"Cmax, Mean (±SD)",[4]; [7],28 (6.8) μg/mL
same,accumulation following repeat administration,[4]; patients,Minimal accumulation
same,estimated mean steady-state volume of distribution,[4]; patients,11 L
same,mean clearance (CL),[4]; patients,0.10 L/h
same,steady-state concentrations reached after,[4]; patients,1 treatment cycle
same,time of peak ADC concentrations,"[4]; patients, intravenous infusion",near the end of intravenous infusion
same,elimination half-life,"[4]; patients, multi-exponential declines",81.6 h
same,"differences in pharmacokinetics based on age (24 to 87 years), sex, or race/ethnicity",[4]; population pharmacokinetic analysis,no clinically significant differences
same,association of higher exposure,"[5]; e.g. Grade >=2 peripheral neuropathy, Grade >=3 hyperglycemia",higher incidence of some adverse reactions
same,association of lower exposure,[5]; exposure-response analysis,lower efficacy
same,findings in pregnant rats dosed during organogenesis,pregnant rats; maternal exposures approximately similar to exposure at recommended human dose of 1.25 mg/kg,"maternal toxicity, embryo-fetal lethality, structural malformations and skeletal anomalies"
same,skeletal anomalies and decreased fetal weight,pregnant rats; rat pilot embryo-fetal development study,observed
same,exposure at 5 mg/kg relative to the recommended human dose,"pregnant rats; rat, 5 mg/kg",approximately 3 times the exposure at the recommended human dose
same,outcome at 2 mg/kg,"pregnant rats; rat, gestation day 6 and 13, 2 mg/kg, approximately similar to exposure at recommended human dose","maternal toxicity, embryo-fetal lethality and structural malformations"
same,outcome at the maternally toxic dose of 5 mg/kg,"pregnant rats; rat, gestation day 6 and 13, 5 mg/kg",complete litter loss in all pregnant rats
same,potential indicated by repeat-dose toxicity studies in rats,rats,impair male reproductive function and fertility
same,reversal of testes and epididymis findings by end of recovery period,rats; up to 13 weeks,did not reverse
same,findings in testes and epididymis,"rats; up to 13 weeks, doses >=2 mg/kg, exposures similar to recommended human dose","decreases in testes and epididymis weights, seminiferous tubule degeneration, spermatid/spermatocyte depletion in the testes and cell debris, sperm granuloma and hypospermia/abnormal spermatids in the epididymis"
